Measured values taken from patent publication US20170313769A1 (Pfizer, published 2017).

Assays:
[1] = target: T1, Human IFNβ (mature human interferon beta) (human, UniProt P01574 22-187); assay: SPR, Biacore T200; antibody amine-coupled on CM5 chip, human IFNβ as analyte, 1:1 model
T1 construct: Recombinant human IFNβ (Peprotech for SPR); In some functional assays it is endogenous IFNβ secreted by primary human cells; also called hIFN-β; recombinant human IFNβ

Rabbit IFNβ = target: T2, Rabbit IFNβ (rabbit); assay: plate ELISA, rabbit IFNβ coated at 10 ng/mL
T2 chain: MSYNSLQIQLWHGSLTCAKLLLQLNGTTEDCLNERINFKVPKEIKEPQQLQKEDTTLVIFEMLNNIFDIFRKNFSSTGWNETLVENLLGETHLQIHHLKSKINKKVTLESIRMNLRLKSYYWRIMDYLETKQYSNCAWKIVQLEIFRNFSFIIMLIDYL

Mouse IFNβ = Mouse IFNβ (mouse, UniProt P01575 22-182); assay: plate ELISA, mouse IFNβ coated at 1 µg/mL
Chain of Mouse IFNβ (P01575 22-182): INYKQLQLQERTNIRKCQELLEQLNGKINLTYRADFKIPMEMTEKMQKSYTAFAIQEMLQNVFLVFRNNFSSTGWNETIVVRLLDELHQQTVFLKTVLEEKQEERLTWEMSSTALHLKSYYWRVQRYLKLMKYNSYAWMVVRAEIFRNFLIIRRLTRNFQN

Cynomolgus monkey IFNβ [2] = target: T3, Cynomolgus monkey IFNβ (cynomolgus monkey, UniProt O77812 22-187); assay: ELISA (summary value); cynomolgus monkey IFNβ
T3 construct: also called cyno-IFNβ
T3 sequence (O77812 22-187): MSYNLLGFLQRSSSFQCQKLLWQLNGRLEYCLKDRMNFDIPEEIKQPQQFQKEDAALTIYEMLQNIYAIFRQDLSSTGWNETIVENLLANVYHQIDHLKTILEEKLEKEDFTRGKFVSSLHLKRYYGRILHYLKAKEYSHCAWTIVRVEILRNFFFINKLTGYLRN

[3] = target: T1, Human IFNβ (mature human interferon …); assay: plate ELISA, human IFNβ coated at 5 µg/mL, antibody titrated from 30 nM
Cynomolgus monkey IFNβ [4] = target: T3, Cynomolgus monkey IFNβ; assay: plate ELISA, cynomolgus IFNβ coated at 5 µg/mL, antibody titrated from 30 nM
[5] = target: T1, Human IFNβ (mature human interferon …); assay: cell-based or functional assay
[6] = target: T1, Human IFNβ (mature human interferon …); assay: SPR, Biacore T200; CTI-AF1 immobilized on CM5 chip, human IFNβ (Peprotech) 10 to 0.078125 nM, 1:1 model

T1 sequence (P01574 22-187): as the sequence (O77812 22-187) above, with S14N, P47L, Y67F, L74S, D96N, I101V, F116L, V117M, F155Y, K159R counted along it

B1: CTI-AF1 (antibody, human IgG1, kappa, V domains shown)
VH: QVQLVQSGAEVKKPGSSVKVSCKASGYTFSRYWMHWVRQAPGQGLEWMGHIDPSDSYTYYNQKFKGRVTITADESTSTAYMELSSLRSEDTAVYYCARWDYGNLLFEYWGQGTLVTVSS
VL: DIQMTQSPSSLSASVGDRVTITCRTSQDIGNYLNWYQQKPGKAFKLLIYSTSRLHSGVPSRFSGSGSGTDFTLTISSLQPEDFATYYCQQGIILPITFGGGTKVEIKR
notes: Humanized IgG1; The C-terminal K of the heavy chain is printed as optional, '(K)'; also called anti-IFNβ antibody; humanized IgG1 antibody against interferon beta
B1 was tested, and the Kd [1] was 0.036 nM, the EC50 (Rabbit IFNβ) was 2.95 nM and the binding result (Mouse IFNβ) was “no binding”. It also gave an EC50 (Cynomolgus monkey IFNβ [2]) of 0.025 nM, an EC50 [3] of 0.0151 nM and an EC50 (Cynomolgus monkey IFNβ [4]) of 0.0247 nM. For the same binder, the “IC50 (pM) ISRE Neutralization” value [5] was 2 pM, the “IC50 (pM) pSTAT1 Inhibition” value [5] was 4 pM and the Kd [6] was 0.0367 nM.
